Experimental data reported in article PMC3621891, “Structural Insights into Omega-Class Glutathione Transferases: A Snapshot of Enzyme Reduction and Identification of a Non-Catalytic Ligandin Site” (PLoS ONE, 2013).

Biological target: the molecule itself
Test: crystal structure; hanging-drop vapour diffusion at 4°C, 2.2 M ammonium sulfate, 100 mM sodium acetate pH 4.25 and 4.75; crystals soaked with 4NPG (one also with GSH); one protomer in the asymmetric unit, dimer by crystallographic two-fold

B1: hGSTO1-1 C32A mutant (human omega-class glutathione transferase 1-1, active-site mutant) (enzyme)
chain: MSGESARSLGKGSAPPGPVPEGSIRIYSMRFAPFAERTRLVLKAKGIRHEVININLKNKPEWFFKKNPFGLVPVLENSQGQLIYESAITCEYLDEAYPGKKLLPDDPYEKACQKMILELFSKVPSLVGSFIRSQNKEDYAGLKEEFRKEFTKLEEVLTNKKTTFFGGNSISMIDYLIWPWFERLEAMKLNECVDHTPKLKLWMAAMKEDPTVSALLTSEKDWQGFLELYLQNSPEACDYGL
notes: human glutathione transferase omega 1 (hGSTO1), C32A active-site mutant; after cleavage no additional N-terminal residues; residues 4 to 241 are seen in the final model; Homodimer; the dimer is produced by two-fold crystallographic symmetry (one protomer in the asymmetric unit); Crystals held GSSG, 4NPG, DTT and sulfate; source: E. coli BL21 (DE3), purified (Ni-NTA agarose, cleavage by …)
B1: binds.
